# Laboratory results reported in publication PMC10720262 (Cell Reports, 2023).
# Biological target: recombinant full-length PfCSP (Plasmodium falciparum circumsporozoite protein, strain NF54) (Plasmodium falciparum NF54, UniProt P19597)
# Sequence (P19597 20-375): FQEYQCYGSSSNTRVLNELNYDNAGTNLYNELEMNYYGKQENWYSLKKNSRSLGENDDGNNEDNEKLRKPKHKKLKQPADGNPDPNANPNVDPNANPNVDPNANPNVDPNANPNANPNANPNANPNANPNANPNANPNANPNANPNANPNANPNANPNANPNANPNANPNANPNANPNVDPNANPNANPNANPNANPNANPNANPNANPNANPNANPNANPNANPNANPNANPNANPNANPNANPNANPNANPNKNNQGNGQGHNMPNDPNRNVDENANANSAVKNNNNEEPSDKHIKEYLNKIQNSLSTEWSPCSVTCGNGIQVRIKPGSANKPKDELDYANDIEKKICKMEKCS
row,Binder,binding result
1,"CL-442127 (antibody, V domains shown) VH: QAQLVESGGGVVQPGKSLRLSCAASRFTFRNYGMHWVRQGPVKGLEWVALIWHDGSNKFYSDSVRDRFTISRDNSKNKLFLQMNSLTADDTALYYCVRSNYDGSGTYGWFGPWGQGTLVTVSS VL: EIVLTQSPGTLSLSPGERATLSCRASQSVISNYLAWYQQKPGQAPRLLIYGASTRDIGIPDRFSGSGSGTDFTLTISRLEPEDFAVYFCHQYGSSFTFGPGTKVDFK",binds
2,"CL-437899 (antibody, V domains shown) VH: QEQLVESGGGVVQPGRSLRLSCEVSGFTFSNHGLHWVRQAPGKGLEWVAIIWYDGSNKFYAESVKGRFTISRDNSKNRMYLEMNSLRVEDSAVYYCVRAYSRSSSDYKYGMDVWGQGTTVTVSS VL: DIQMTQSPSTLSASVGDRVIITCRASQSISSWLAWYQQRPGKAPELLIYKASSLETGVPSRFSGSGSGTEFTLTISSLQPDDFATYFCQQYSSYWTFGQGTKVEIK",binds
3,"CL-444653 (antibody, V domains shown) VH: QVQLVESGGGVVQPGRSLRLSCTASGFTFSTYGMHWVRQAPGKGLEWVAIIWYDGGNKFYADSVKGRFTISRDNSKDTLYLQMNSLRAEDTAVYYCAKAWYKVDDKYSMDVWGQGTTVTVSS VL: DIQMTQSPSTLSASVGDRVTITCRASQSISSWLAWYQQKPGKAPKLLIYKASSLESGVPSRFSGSGSGTEFTLTISGLQPDDFATYYCQQYINYWTFGQGTKVEIK",binds
4,"CL-444588 (antibody, V domains shown) VH: QVQLVESGGGVVQPGRSLRLSCAASGFTFSGYGMHWVRQTPGKGLGWVALIWYDGSNKFYADSVRGRFTISRDNSKNTLYLQMNSLRAEDTAIYYCARSYPSGSRGDKYGMDVWGQGTTVTVSL VL: DIQMTQSPSTLSASVGDRVTITCRASQSISTWLAWFQQKPGKAPKLLIYKASSLESGVPSRFTGSGSGTEFTLTISSLQPDDFATYYCQQYNSYWTFGQGTKVEIK",binds
5,"CL-438096 (antibody, V domains shown) VH: QVVLVESGGGVVQPGRSLRLSCEASGFIFSSRGMHWVRQTPGKGLEWVAIIWYDGSNKFYADSVKGRFTISRDNSKNTLYLQMNSLRAEDTAVYYCARSYRTSLDKKYGMDVWGQGTTVTVSS VL: DIQMTQSPSTLSASVGDRVTITCRASQSISSWLAWYQQKPGKAPKLLIYKASSLESGVPSRFSGSGSGTEFTLTISSLHPDDFATYFCQQYNSYWTFGQGTKVEIK",binds
6,"CL-444469 (antibody, V domains shown) VH: QVQLVESGGGVVQPGRSLRVSCEVSGLTFSNYGMHWVRQAPGKRLEWVAIIWYDGSNKYYADSVKGRFTISRDNSKNTLYLQMNSLRAEDTAVYYCARSYGSGSRGDYYGMDVWGQGTTVTVSS VL: DIQMTQSPSTLSASVGDRVTITCRASQSISSWLAWFQQKPGKAPKLLIYKASSLESGVPSRFSGSGSGTEFTLTISSLQPDDFATYYCQQYYSYWTFGQGTKVEIK",binds
7,"CL-441816 (antibody, V domains shown) VH: QEQLVESGGGVVQPGRSLRLSCATSGFTFSTYGLHWVRQSPGKGLEWVTVIWYDGSNKFYADSVKGRFTISRDNSKNTLYLQMNSLRAEDTAVYYCARALYSSRWYGAFDIWGQGTMVTVSS VL: QSVLTQPPSVSGAPGQRVTISCTGSSSNIGAGYDVHWYQLLPGTAPKLLIYGNSNRPSGVPDRFSGSKSGTSASLAITGLQAEDEADYYCQSYIRSLSGSVFGGGTKLTVL",binds
8,"CL-444592 (antibody, V domains shown) VH: QVQLVESGGGVVQPGRSLRLSCAASGFTFSSYGMHWVRQAPGKGLEWVAVIWYDGSNKYYADSVKGRFTISRDNSKNTLYLQMNSLRAEDTAVYYCARDGNWNYNYYYGMDVWGQGTTVTVSS VL: DIQLTQSPSFLSASVGDRVTITCWASQGISSYLAWYQQKPGKAPKLLIYAASTLQSGVPSRFSGSGSGTEFTLTISSLQPEDFATYYCQQLNSYPPTFGQGTRLEIK",binds
9,"CL-441734 (antibody, V domains shown) VH: QVQLVESGGGVVQPGRSLRLSCAASGFTFSSHGMHWVRQAPVKGLEWVAVIWYDGSNKYYADSVKGRFTISRDNSKNTLYLQMNSLRAEDTAVYYCARVEYSRSSGDYYYYGLDVWGQGTTVTVSS VL: EIVMTQSPATLSVSPGERATLSCRASQSVSSNLAWYQQKPGQAPRLLIYGASTRATGIPARFSGSGSGTEFTLTISSLQSEDFAVYYCQQYDNWWTFGQGTKVEIK",binds
10,"CL-444639 (antibody, V domains shown) VH: QVQLVESGGGVVQPARSLRLSCAASGFTFSSYGMHWVRQAPGKGLEWVAVIWYDGSNKYYADSVKGRFTISRDNSKNTLYLQMNSLRAEDTAVYYCAKVGDFYGSGSYPHYYGMDVWGQGTTVTVSS VL: not shown",binds
11,"CL-437907 (antibody, V domains shown) VH: QVQLVESGGGVVQPGRSLRLSCVASGFTFSHSGMHWVRQTPGKGLEWVAIIWHDGSIKYYVESVKGRFTISRDNSKNTLYLEMRSLRAEDTAVYFCVRSYSESLYDKYGMDVWGQGTTVTVSS VL: DIQMTQSPSTLSASVGDRVTISCRASQSISSWLAWFQQKPGKAPKLLIYAASSLQSGVPSRFSGSGSGTDFTLTISSLQPDDFATYYCQQFNSYWTFGQGTKVEVK",binds
12,"CL-437492 (antibody, V domains shown) VH: QEQLVESGGGVVQPGNSLRLSCVASGFTFSNHGMHWVRQAPGKGLEWVAIIWYDGSQKFYSDSVKGRFTISRDNSKNTLYLQMNSLRAEDTAIYYCARVDWSGNDWGWFDPWGQGTLVTVSS VL: EIVLTQSPDTLSLSPGERATLSCRASQTLSSRHLAWYQQKPGQAPRLLIYGASSRATGIPDRFSGSGSGTDFTLTINRLEPEDFAVFYCQQYGRLWTFGQGTKVEIK",binds
13,"CL-444424 (antibody, V domains shown) VH: QVQLVESGGGVVQPGRSLRLSCTASGFTFSNYGMHWIRQAPGKGLEWVAIIWFDGSSQYYADSVKGRFTISRDNSKNTLYLQMNSLRAEDTAVYYCVRALYDSGSLFDFWGLGTLVTVSS VL: DIQMTQSPSTLSASVGDRVTITCRASQNISSLLAWYQQKPGKAPKLLIYKASSLESGVPSRFSGNGSGTEFTLTVSSLQPDDFATYSCLQYNNYWTFGQGTKVEIK",binds
14,"CL-438145 (antibody, V domains shown) VH: QVQLVESGGGVVQPGRSLRLSCAASGFTFSDYGMHWVRQAPGKGLEWVAIIWYDGSNKYYAASVKDRFIISRDNFKNTLYLQMNSLRAEDTAVYYCARVNFDDSGSWDYWGQGTLATVSS VL: DIQMTQSPSTLSASVGDRVTITCRASQNINTRLAWYQQKVGTAPKLLIYTASSLESGVPSRFSGSGSGTEFTLTISSLQPDDFATYYCQQYYRYWTFGQGTKVEIK",binds
15,"CL-440324 (antibody, V domains shown) VH: QVQLVESGGGVVQPGRSLRLSCAASGFTFRNHGLHWVRQAPGKGLEWVAIIWFDGSNKFYADSVKGRFTISRDNSKNTLYLQMNSLRAEDTAIYYCARVSSHDNGDYGDFDYWGQGTLVTVSS VL: DIQMTQSPSTLSASVGDRVTITCRASQNISNWLAWYQQKPGKAPKLLIYKASSLESGVPSRFSGSGSGTEFTLTISGLQPDDFATYYCQQYKTYWTFGQGTQVEIK",binds
16,"CL-437762 (antibody, V domains shown) VH: QVQLVESGGGVVQPGRSLRLSCAASGFTFSNYGMYWVRQAPGKGLEWVAVIWYDGSNKYYADSVKGRFTISRDNSKNTLYLQMNSLRAEDTAFYYCARPQYSGSGSYFDYWGQGTLVTVSS VL: not shown",binds
17,"CL-444691 (antibody, V domains shown) VH: QVQLVESGGGVVQPGRSLRLSCAASGFTFSNYGMHWVRQAPGKGLEWVAVIWYDGSNKFYADSVKGRFTISRDNSKNTLYLQMNSLRAEDTAVYYCARDGGYNKNSGSYGWFDPWGQGTLVTVSS VL: DIQMTQSPSTLSASVGDRVTITCRASQSVSTWLAWYQQKPGKAPKLLIYKASSLESGVPSRFSGSGSGTEFTLTISSLQPDDFATYYCQQYNSYFTFGQGTRLEIK",binds
18,"CL-440422 (antibody, V domains shown) VH: QVQLVESGGGVVQPGRSLRLSCAASGFTFSNFGMHWVRQTPDRGLEWVAIIWFDGSNTFYTDSVKGRFTISRDNYMNTLYLQMNSLRAEDTAVYYCARSFYSDSAGSLFDYWGQGTLVTVSS VL: DIQMTQSPSTLSASVGDRVTITCRASQNINNWVAWYQQKPGKAPKLLIYKASDLETGVPSRFSGSGSGTEFTLTISGLQPDDFATFYCLQNNHYWTFGQGTKVEIK",binds
19,"CL-444387 (antibody, V domains shown) VH: QVHLVESGGGVVQPGRSLRLSCVASGFSFSSYGMHWVRQAPGKGLEWVAIIWYDGSYTYYADSVKGRFTISRDNSKNTLYLQMNSLRVEDTAVYYCAKVGLSYNGRTGAFDIWGQGTMVTVSS VL: not shown",binds
20,"CL-437092 (antibody, V domains shown) VH: QVQLVESGGGVVQPGGSLRLSCAASGFTLSSFGIHWVRQAPGKGLEWVALIWHDGSMKYYADSVKGRFTISRDNSKNTVDIQMNSLRVEDTAVYYCARPGIGSPGDHYTMDVWGHGTTVTVSS VL: not shown",binds
21,"CL-437716 (antibody, V domains shown) VH: QVHLVESGGGVVQPGRSLRLSCAASGFIFSNSGMHWVRQVPGKGLEWVAIIWYDGSNKYYADSVKGRFTISRDNSKNTLYLQMNSLRAEDTAVYYCVRAYSSSSSYYYGMDVWGQGTTVTVSS VL: not shown",binds
22,"CL-437862 (antibody, V domains shown) VH: QVQLVESGGGVVQPGRSLRLSCAASGFTFSNSGMHWVRQVPGKGLEWVAIIWYDGGNKYYADSVKGRFTISRDNSKNTLYLQMNSLRAEDTAVYYCARAYYDILTSYDKDCCYGMDVWGQGTTVTVSS VL: not shown",binds
23,"CL-437934 (antibody, V domains shown) VH: QVQLVASGGAVVQPGRSLRLSCAASGFTFSNSGMHWVRQAPGQGLEWVAIIWYDGGNKYYADSVKGRFTISRDNSKNTLYLQMNSLRAEDTAVYYCVRAYYEILTTYNKDCCYGMDVWGQGTTVTVSS VL: not shown",binds
24,"CL-440582 (antibody, V domains shown) VH: QVQLVESGGGVVQPGRSLRLSCAASGFTLNNYGIHWVRQAPGKGLEWLSLIWYDGSNKFYADSVKGRFTVSRDNSQNTVSLHMSSLSVDDTAVYYCARPGIGVPGDKYTMDVWGQGTTVTVSS VL: DIQMTQSPSTLSASVGDRVTITCRASQTISAWLAWYQQKLGKAPKILIYKASILESGVPSRFSGSGSGTEFTLTINSLQPDDFATYYCQQYNYDWTFGQGTKVEIN",binds
